In PMC8519567:
Read-outs that look alike come from different tables or passages of the source. Each block holds one substance with its values, some of them ahead of it.

Tests used:
[1] = test system: SMARCAD1 (dephosphorylated with CIP) (Homo sapiens); assay: FP
[2] = target: histones: H3-H4 (Alexa Fluor 488–H4) and H2A-H2B (Atto647N H2B) mixed at 10 nM (human); assay: FRET or BRET
[3] = target: histones: H3-H4 (Alexa Fluor 488–H4) and H2A-H2B (Atto647N H2B) mixed at 10 nM (human); assay: FRET or BRET; remark: listed apart in the source
[4] = target: 7 N11 nucleosome labeled at H4 E63C with Alexa Fluor 488 (human) (UniProt P04908); assay: fluorescence polarisation
[5] = target: refolded histones H3-H4 labeled with Alexa Fluor 488 on H4 (human) (UniProt P68431); assay: fluorescence polarisation

Substance: TLH4 nucleosome (tailless H4)
Kd ([1]; H4 N-terminal tail deleted): 110 nM

Kd [2]: 2.1 nM
Kd [3]: 1.3 nM
Kd [4]: 90 nM
Kd [5]: 4 nM
Substance: dephosphorylated SMARCAD1 (from UniProt Q9H4L7 1-1026) (enzyme)

Substance: 147-bp 601 DNA
Kd [1]: 80 nM

Substance: TLH3 nucleosome (tailless H3)
Kd ([1]; H3 N-terminal tail deleted): 330 nM

Substance: 7N11 nucleosome (165 bp), Alexa Fluor 488 at H4 E63C
Kd [1]: 90 nM
